From patent US20090311710A1, “MUTAGENESIS METHODS USING RIBAVIRIN AND/OR RNA REPLICASES” (priority 2002, published 2009)

Tested on: TEM-1 Θ-lactamase (bla) gene expressed in bacteria
Assay: Cefotaxime resistance (MIC) conferred by mutant bla clones
Format: cell-based
Settings: bla clone expressed in bacteria; listed as wild-type bla gene
From the text: T7 RNA polymerase with the addition of 1000TM ribavirin 5′ triphosphate (dTRV) was used to transcribe (−) RNA from the bla gene θ-lactamase gene for antibiotic resistance) on plasmid pEGX205. The bla RNA was subsequently converted to cDNA using M-MuLV-reverse transcriptase, amplified with Pfu DNA polymerase, cut with appropriate restriction enzymes, and cloned into the plasmid pEGX212. Clones resistant to increased concentrations of cefotaxime were selected and sequenced (the minimum inhibitory concentration [MIC] for the wild-type bla gene was 0.02 ug/ml). […] When clone CefR E1 RNA was taken through a second round of T7 polymerase/dTRV mutagenesis, 3 clones containing 3 or more mutations were selected with one clone (F-E1-1) showing a 10,000-fold increase in cefotaxime resistance over the wild-type. No resistant mutants were isolated in the mutation/selection experiments that used T7 polymerase alone.

B1: Wild-type: wild-type TEM-1 β-lactamase (bla) gene for antibiotic resistance (protein, UniProt P62593 24-286, looked up)
Beta-lactamase TEM: HPETLVKVKDAEDQLGARVGYIELDLNSGKILESFRPEERFPMMSTFKVLLCGAVLSRVDAGQEQLGRRIHYSQNDLVEYSPVTEKHLTDGMTVRELCSAAITMSDNTAANLLLTTIGGPKELTAFLHNMGDHVTRLDRWEPELNEAIPNDERDTTMPAAMATTLRKLLTGELLTLASRQQLIDWMEADKVAGPLLRSALPAGWFIADKSGAGERGSRGIIAALGPDGKPSRIVVIYTTGSQATMDERNRQIAEIGASLIKHW
cefotaxime minimum inhibitory concentration (MIC): 0.02 µg/mL
